Earlier results, collected in patent US7931890B2, “Targeted combination immunotherapy of cancer and infectious diseases” (Immunomedics, Inc., priority 1996, dated 2011).

What was measured:
streptavidin = streptavidin (Streptomyces avidinii, UniProt P22629); details: streptavidin-biotin system; Rosebrough 1993; cited from earlier work
CEA = biological target: T1, CEA (Homo sapiens, UniProt P06731); details: Hansen et al. 1993; cited from earlier work
T1 sequence (P06731 35-676): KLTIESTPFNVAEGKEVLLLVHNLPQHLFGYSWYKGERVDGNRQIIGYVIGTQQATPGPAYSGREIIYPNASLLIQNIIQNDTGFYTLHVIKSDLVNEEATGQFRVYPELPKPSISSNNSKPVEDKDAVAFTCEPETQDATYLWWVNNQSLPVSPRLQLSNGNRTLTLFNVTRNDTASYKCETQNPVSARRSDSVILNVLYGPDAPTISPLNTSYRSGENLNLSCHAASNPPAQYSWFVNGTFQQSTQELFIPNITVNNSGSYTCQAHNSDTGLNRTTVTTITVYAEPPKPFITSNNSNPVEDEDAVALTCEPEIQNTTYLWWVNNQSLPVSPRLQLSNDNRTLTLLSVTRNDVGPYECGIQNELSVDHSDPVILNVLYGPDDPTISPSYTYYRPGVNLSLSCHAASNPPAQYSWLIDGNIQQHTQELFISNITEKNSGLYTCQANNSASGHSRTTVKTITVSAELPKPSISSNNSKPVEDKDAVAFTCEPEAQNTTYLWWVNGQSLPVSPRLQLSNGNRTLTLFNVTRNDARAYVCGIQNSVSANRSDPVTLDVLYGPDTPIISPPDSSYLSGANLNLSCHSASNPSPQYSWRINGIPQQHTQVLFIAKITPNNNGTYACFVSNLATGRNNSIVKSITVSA

[1] = Rosebrough 1993; cited from earlier work

Chain of streptavidin (P22629 25-183): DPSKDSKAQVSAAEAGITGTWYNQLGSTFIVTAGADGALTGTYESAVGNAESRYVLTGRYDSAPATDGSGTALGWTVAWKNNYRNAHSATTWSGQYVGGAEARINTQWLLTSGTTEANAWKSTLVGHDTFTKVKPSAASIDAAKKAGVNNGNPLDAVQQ

## O=C(O)CCCC[C@@H]1SC[C@@H]2NC(=O)N[C@@H]21 [biotin]
streptavidin
  Ka: 10^15 M^−1

## MN-14: second generation CEA-antibody
CEA
  affinity for CEA relative to first generation NP-4: ten times more affinity

## avidin: biotin-binding protein found in egg whites
[1]
  pI: > 10
